Our source for the stoichiometry N (HROB per MCM8-9 heterodimer) values is publication PMC11055865.

In this test the target is MCM8-9 complex (FLAG-tagged MCM8 and MBP-tagged MCM9), wild type (human) (UniProt Q9UJA3). The test can be described thus: mass photometry; MCM8-9 preincubated with HROB (both 1 μM) 10 min at room temperature in 25 mM Tris-HCl pH 7.5, 3 mM EDTA, 50 mM NaCl, then rapidly diluted to 200 nM; complex largely fell apart upon dilution.
Chain of MCM8-9 complex (FLAG-tagged MCM8 and MBP-tagged MCM9), wild type (human) (Q9UJA3 whole entry, chain 1 of 2): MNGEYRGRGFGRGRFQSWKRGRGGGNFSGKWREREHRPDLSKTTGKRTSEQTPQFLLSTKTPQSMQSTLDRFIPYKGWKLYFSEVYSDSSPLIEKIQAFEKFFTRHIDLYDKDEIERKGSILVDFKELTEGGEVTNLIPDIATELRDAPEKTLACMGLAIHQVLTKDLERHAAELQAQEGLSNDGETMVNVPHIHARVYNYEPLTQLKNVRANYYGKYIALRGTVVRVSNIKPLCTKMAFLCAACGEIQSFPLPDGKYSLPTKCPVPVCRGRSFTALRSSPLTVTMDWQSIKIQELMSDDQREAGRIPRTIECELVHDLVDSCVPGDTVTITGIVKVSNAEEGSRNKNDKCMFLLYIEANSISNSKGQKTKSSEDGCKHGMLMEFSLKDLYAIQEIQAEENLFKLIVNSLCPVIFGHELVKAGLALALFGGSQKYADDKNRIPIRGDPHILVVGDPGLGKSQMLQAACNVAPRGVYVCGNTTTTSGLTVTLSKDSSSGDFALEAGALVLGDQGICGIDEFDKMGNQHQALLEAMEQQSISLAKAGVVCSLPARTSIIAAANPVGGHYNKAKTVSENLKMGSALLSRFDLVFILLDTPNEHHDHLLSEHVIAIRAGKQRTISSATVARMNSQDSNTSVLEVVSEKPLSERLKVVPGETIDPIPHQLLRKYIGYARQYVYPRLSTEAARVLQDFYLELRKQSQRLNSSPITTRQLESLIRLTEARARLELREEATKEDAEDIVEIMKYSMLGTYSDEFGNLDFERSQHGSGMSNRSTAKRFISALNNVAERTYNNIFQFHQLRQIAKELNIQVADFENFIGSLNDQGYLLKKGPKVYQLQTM
Chain of MCM8-9 complex (FLAG-tagged MCM8 and MBP-tagged MCM9), wild type (human) (Q9NXL9 whole entry, chain 2 of 2, further chain): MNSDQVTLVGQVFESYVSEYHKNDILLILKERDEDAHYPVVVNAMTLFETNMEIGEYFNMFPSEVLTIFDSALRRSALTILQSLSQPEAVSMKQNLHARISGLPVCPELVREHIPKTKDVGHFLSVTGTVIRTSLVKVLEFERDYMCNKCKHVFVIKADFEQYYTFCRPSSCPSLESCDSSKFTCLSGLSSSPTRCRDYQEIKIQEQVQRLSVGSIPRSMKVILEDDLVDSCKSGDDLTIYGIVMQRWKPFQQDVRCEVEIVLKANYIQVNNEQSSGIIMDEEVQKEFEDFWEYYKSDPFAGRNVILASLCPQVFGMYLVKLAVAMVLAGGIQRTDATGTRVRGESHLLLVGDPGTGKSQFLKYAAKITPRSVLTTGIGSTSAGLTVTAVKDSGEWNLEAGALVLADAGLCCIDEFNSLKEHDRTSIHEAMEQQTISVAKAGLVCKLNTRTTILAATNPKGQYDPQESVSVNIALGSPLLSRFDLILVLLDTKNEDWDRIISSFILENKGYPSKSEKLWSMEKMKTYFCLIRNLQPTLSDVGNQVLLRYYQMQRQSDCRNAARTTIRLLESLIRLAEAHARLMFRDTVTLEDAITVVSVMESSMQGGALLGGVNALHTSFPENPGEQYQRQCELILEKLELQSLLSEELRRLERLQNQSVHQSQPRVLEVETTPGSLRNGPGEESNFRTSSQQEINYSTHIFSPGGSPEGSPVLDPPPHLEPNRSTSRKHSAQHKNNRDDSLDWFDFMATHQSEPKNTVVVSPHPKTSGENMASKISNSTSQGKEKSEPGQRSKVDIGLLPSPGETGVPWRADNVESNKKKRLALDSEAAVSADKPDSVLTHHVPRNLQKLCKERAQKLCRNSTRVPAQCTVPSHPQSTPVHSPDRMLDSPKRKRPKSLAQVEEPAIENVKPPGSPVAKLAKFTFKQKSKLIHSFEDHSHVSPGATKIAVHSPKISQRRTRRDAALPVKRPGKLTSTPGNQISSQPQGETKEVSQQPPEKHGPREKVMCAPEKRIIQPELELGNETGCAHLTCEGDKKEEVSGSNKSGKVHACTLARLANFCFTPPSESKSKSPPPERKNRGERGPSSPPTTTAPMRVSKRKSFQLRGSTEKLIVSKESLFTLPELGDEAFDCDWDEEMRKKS

As to “HROB-FLAG (wild type HROB, homologous recombination factor with OB-fold) (from UniProt Q8N3J3-4 1-646) (natural protein)”, the stoichiometry N (HROB per MCM8-9 heterodimer) was found to be 1.
